From the Human Domainome abundance scans (Beltran et al. 2025)
± gives the uncertainty stated by the source.

B1: Tyrosine-protein kinase Lck, residues 63 to 120; numbered along this chain, P06239 (parent)
chain: DNLVIALHSYEPSHDGDLGFEKGEQLRILEQSGEWWKAQSLTTGQEGFIPFNFVAKAN

Variants of: B1
Test: abundance fitness (aPCA) (normalised: wild type 0, dead -1); higher = more abundant; growth selection in yeast, the domain comes from the species named
Details: Homo sapiens
K37Q gave an abundance fitness of -0.406 ± 0.14. K37G gave an abundance fitness of -0.96 ± 0.14. In the case of K37C, the abundance fitness is reported as -0.593 ± 0.12. In the case of K37S, the abundance fitness is reported as -0.321 ± 0.085. K37M showed an abundance fitness of -0.307 ± 0.12. For K37V, the abundance fitness was -0.232 ± 0.092. With E30L the abundance fitness was -0.601 ± 0.12. E30G showed an abundance fitness of -0.21 ± 0.063. For E30W, the abundance fitness was -0.503 ± 0.13. E30I gave an abundance fitness of -0.586 ± 0.21. Work on E30R yielded an abundance fitness of -0.285 ± 0.085. In the case of E30Y, the abundance fitness is reported as -0.362 ± 0.17. E30F gave an abundance fitness of -0.45 ± 0.18. With E30C the abundance fitness was -0.265 ± 0.12. Work on E30K yielded an abundance fitness of -0.248 ± 0.15. For E30T, the abundance fitness was -0.293 ± 0.12. E30D gave an abundance fitness of -0.087 ± 0.12. E30P gave an abundance fitness of -0.752 ± 0.24. Variant E30V has an abundance fitness of -0.17 ± 0.079. Variant E30M has an abundance fitness of -0.278 ± 0.19. E30Q showed an abundance fitness of -0.161 ± 0.15. In the case of E30A, the abundance fitness is reported as -0.115 ± 0.087. Work on E30H yielded an abundance fitness of -0.247 ± 0.13. In the case of Q31L, the abundance fitness is reported as -0.707 ± 0.1. Q31I showed an abundance fitness of -0.552 ± 0.26. Work on Q31D yielded an abundance fitness of -0.011 ± 0.12. Q31W gave an abundance fitness of -0.161 ± 0.11. In the case of Q31P, the abundance fitness is reported as -0.235 ± 0.15. For Q31K, the abundance fitness was 0.003 ± 0.17. Variant Q31F has an abundance fitness of -0.5 ± 0.15. In the case of Q31C, the abundance fitness is reported as -0.097 ± 0.15. Variant Q31R has an abundance fitness of 0.054 ± 0.081. With Q31T the abundance fitness was -0.291 ± 0.12. Q31H gave an abundance fitness of -0.301 ± 0.17. With Q31Y the abundance fitness was -0.234 ± 0.17. For Q31E, the abundance fitness was 0.025 ± 0.12. For Q31A, the abundance fitness was 0.032 ± 0.1. With Q31V the abundance fitness was -0.354 ± 0.11. With R27K the abundance fitness was -0.154 ± 0.14. With R27M the abundance fitness was -0.309 ± 0.14. With R27T the abundance fitness was -0.24 ± 0.12. With R27Y the abundance fitness was -0.193 ± 0.3. In the case of R27L, the abundance fitness is reported as -0.056 ± 0.088. With R27E the abundance fitness was -0.022 ± 0.14. Variant R27D has an abundance fitness of -0.421 ± 0.13. With R27C the abundance fitness was -0.208 ± 0.13. R27I showed an abundance fitness of -0.162 ± 0.14. R27F gave an abundance fitness of -0.448 ± 0.13. Work on R27H yielded an abundance fitness of -0.049 ± 0.13. Variant R27W has an abundance fitness of -0.44 ± 0.15. Work on R27N yielded an abundance fitness of -0.471 ± 0.14. In the case of R27G, the abundance fitness is reported as -0.881 ± 0.12. In the case of R27P, the abundance fitness is reported as -0.914 ± 0.29. Work on R27V yielded an abundance fitness of -0.062 ± 0.089. R27S showed an abundance fitness of -0.465 ± 0.091. With K22R the abundance fitness was -0.252 ± 0.074. With K22M the abundance fitness was -0.514 ± 0.13. Work on K22W yielded an abundance fitness of -0.928 ± 0.13. For K22Q, the abundance fitness was -0.371 ± 0.13. K22N showed an abundance fitness of -0.777 ± 0.26. K22T showed an abundance fitness of -0.187 ± 0.11. With K22P the abundance fitness was -0.801 ± 0.18. For K22L, the abundance fitness was -0.625 ± 0.09. For G23E, the abundance fitness was -0.823 ± 0.17. Work on G23M yielded an abundance fitness of -0.792 ± 0.16. With G23V the abundance fitness was -1.04 ± 0.12. G23Y gave an abundance fitness of -0.655 ± 0.29. G23Q showed an abundance fitness of -0.903 ± 0.2. For G23L, the abundance fitness was -0.832 ± 0.12. G23H showed an abundance fitness of -0.397 ± 0.2. Work on G23I yielded an abundance fitness of -0.79 ± 0.22. Work on G23N yielded an abundance fitness of -0.066 ± 0.15. G23S gave an abundance fitness of -0.635 ± 0.094. In the case of G23T, the abundance fitness is reported as -0.917 ± 0.23. G23W gave an abundance fitness of -0.648 ± 0.13. Work on G23D yielded an abundance fitness of -0.477 ± 0.1. With G23K the abundance fitness was -0.792 ± 0.2. For G23F, the abundance fitness was -0.573 ± 0.18. In the case of G23C, the abundance fitness is reported as -0.829 ± 0.26. In the case of G23P, the abundance fitness is reported as -1.01 ± 0.29. Q39R gave an abundance fitness of -0.017 ± 0.073. For Q39N, the abundance fitness was -0.868 ± 0.3. Q39M showed an abundance fitness of -0.179 ± 0.11. Work on Q39G yielded an abundance fitness of -0.722 ± 0.095. Q39P showed an abundance fitness of -0.843 ± 0.23. Work on Q39K yielded an abundance fitness of -0.042 ± 0.12. With Q39C the abundance fitness was -0.386 ± 0.13. In the case of Q39A, the abundance fitness is reported as -0.361 ± 0.12. Work on Q39F yielded an abundance fitness of -0.503 ± 0.2. With Q39L the abundance fitness was -0.312 ± 0.083. In the case of Q39Y, the abundance fitness is reported as -0.468 ± 0.14. Q39D showed an abundance fitness of -1.03 ± 0.35. In the case of Q39I, the abundance fitness is reported as -0.327 ± 0.17. With Q39T the abundance fitness was -0.278 ± 0.11. Q39W gave an abundance fitness of -0.784 ± 0.12. Variant Q39S has an abundance fitness of -0.297 ± 0.092. For S40K, the abundance fitness was -0.076 ± 0.13. S40N gave an abundance fitness of -0.135 ± 0.15. Variant S40M has an abundance fitness of -0.918 ± 0.17. In the case of S40R, the abundance fitness is reported as -0.107 ± 0.067. In the case of S40G, the abundance fitness is reported as -0.795 ± 0.087. Work on S40P yielded an abundance fitness of -0.793 ± 0.15. For S40E, the abundance fitness was -0.789 ± 0.13. For S40W, the abundance fitness was -0.989 ± 0.15. In the case of S40D, the abundance fitness is reported as -0.626 ± 0.14. Work on S40T yielded an abundance fitness of -0.484 ± 0.14. Variant S40Y has an abundance fitness of -0.862 ± 0.21. In the case of S40I, the abundance fitness is reported as -0.687 ± 0.21. Work on S40Q yielded an abundance fitness of -0.622 ± 0.18. For S40V, the abundance fitness was -0.641 ± 0.088. With S40L the abundance fitness was -0.538 ± 0.083. With S40F the abundance fitness was -0.908 ± 0.12. S40H gave an abundance fitness of -0.115 ± 0.15. With S40A the abundance fitness was -0.382 ± 0.088. W36P showed an abundance fitness of -0.298 ± 0.1. Work on W36F yielded an abundance fitness of -0.181 ± 0.13. W36L showed an abundance fitness of -0.101 ± 0.079. W36K gave an abundance fitness of -0.521 ± 0.22. For W36V, the abundance fitness was -0.1 ± 0.076. Work on W36M yielded an abundance fitness of -0.075 ± 0.11. In the case of W36Y, the abundance fitness is reported as -0.074 ± 0.16. W36A gave an abundance fitness of 0.032 ± 0.094. With W36E the abundance fitness was -0.881 ± 0.16. In the case of W36S, the abundance fitness is reported as -0.408 ± 0.086. Variant W36D has an abundance fitness of -0.614 ± 0.18. With W36I the abundance fitness was -0.617 ± 0.31. W36R showed an abundance fitness of -0.213 ± 0.066. Variant W36T has an abundance fitness of -0.029 ± 0.15. In the case of W36G, the abundance fitness is reported as -0.283 ± 0.067. In the case of W36C, the abundance fitness is reported as -0.046 ± 0.098. In the case of W36H, the abundance fitness is reported as -0.585 ± 0.27. For I28C, the abundance fitness was -0.658 ± 0.11. Variant I28R has an abundance fitness of -0.874 ± 0.1. I28Y gave an abundance fitness of -0.459 ± 0.2. Variant I28W has an abundance fitness of -0.941 ± 0.29. Work on I28Q yielded an abundance fitness of -0.924 ± 0.28. I28H gave an abundance fitness of -1.03 ± 0.31. I28T showed an abundance fitness of -0.683 ± 0.16. I28M gave an abundance fitness of -0.662 ± 0.17. I28E showed an abundance fitness of -0.969 ± 0.24. I28P showed an abundance fitness of -0.885 ± 0.15. Work on I28G yielded an abundance fitness of -0.754 ± 0.11. I28V gave an abundance fitness of -0.108 ± 0.085. For I28L, the abundance fitness was -0.074 ± 0.088. With I28K the abundance fitness was -0.903 ± 0.16. Work on I28A yielded an abundance fitness of -0.554 ± 0.11. For I28S, the abundance fitness was -0.645 ± 0.084. Variant I28N has an abundance fitness of -0.585 ± 0.19. I28D gave an abundance fitness of -0.833 ± 0.24. In the case of I28F, the abundance fitness is reported as -0.977 ± 0.26. Work on L26H yielded an abundance fitness of -0.728 ± 0.24. In the case of L26E, the abundance fitness is reported as -0.596 ± 0.19. L26V showed an abundance fitness of -0.781 ± 0.12. L26W showed an abundance fitness of -0.864 ± 0.15. L26P showed an abundance fitness of -0.909 ± 0.24. In the case of L26A, the abundance fitness is reported as -0.987 ± 0.2. Variant L26N has an abundance fitness of -0.787 ± 0.22. Variant L26K has an abundance fitness of -0.919 ± 0.3. L26F gave an abundance fitness of -0.28 ± 0.18. L26S gave an abundance fitness of -0.84 ± 0.16. With L26M the abundance fitness was -0.126 ± 0.14. Variant L26G has an abundance fitness of -0.704 ± 0.091. For L26Q, the abundance fitness was -0.572 ± 0.22. L26I gave an abundance fitness of -0.648 ± 0.3. L26Y showed an abundance fitness of -0.929 ± 0.26. L26C showed an abundance fitness of -1.28 ± 0.31. For L26R, the abundance fitness was -0.726 ± 0.1.
